The text below walks through data of patent publication US20240010695A1 (ASHER BIOTHERAPEUTICS, published 2024).

The target in the assay is Wild type IL-10 dimer fused to xhCD8b (format E) (Homo sapiens (Human), UniProt P22301 19-178; P22301 19-178). Nature of the assay: SPR 37 C; fusion captured via Fc, IL-10RA ECD analyte. The procedure: To determine the affinities with IL-10RA, antibody or fusion proteins were captured onto the CM4 sensor chip via their Fc by covalently anti-human Fc antibody (Southern Biotech, Catalog No. 2081-01). Protein was not captured on flow cell 1 to serve as a reference surface. In-house generated human IL-10RA ECD, diluted in HBS-P+ buffer supplemented with 1 g/L BSA, at concentrations of 8, 40, 200, 1000, and 5000 nM, or buffer was flowed over the surface-captured fusion protein for 2 minutes at 30 μL/min. Dissociation was monitored for 4-5 minutes, and the anti-hIgG-Fc surface was regenerated with three 30-seconds injections of 75 mM phosphoric acid between analysis cycles. Binding data were analyzed by Biacore® Evaluation Software version 3.2 using a 1:1 Langmuir with mass transport model or by steady-state affinity analysis.
Chain of Wild type IL-10 dimer fused to xhCD8b (format E) (P22301 19-178 limits assumed, chain 1 of 2): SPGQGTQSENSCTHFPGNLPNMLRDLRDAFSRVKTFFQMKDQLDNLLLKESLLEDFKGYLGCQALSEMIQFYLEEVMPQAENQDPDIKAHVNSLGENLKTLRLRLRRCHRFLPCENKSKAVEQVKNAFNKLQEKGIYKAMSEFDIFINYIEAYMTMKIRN
Chain of Wild type IL-10 dimer fused to xhCD8b (format E) (P22301 19-178 limits assumed, chain 2 of 2): as the sequence (P22301 19-178 limits assumed, chain 1 of 2) above
As shown in Example 3, fusion proteins comprising CD8 antibodies and IL-10 monomer polypeptides selectively activated CD8+ T cells over monocytes and CD4+ T cells. […] Amino acid substitutions and the amino acid sequences of representative mutant monomer IL-10 polypeptides that were evaluated are shown in Table 4A. […] In all cases, the IL-10 polypeptide was expressed as a fusion protein, with the antibody binding domain specified in column 2, and the format shown in parentheses, based on the schematics depicted in FIG. 6.

B1: human IL-10RA ECD (receptor)
chain: HGTELPSPPSVWFEAEFFHHILHWTPIPNQSESTCYEVALLRYGIESWNSISNCSQTLSYDLTAVTLDLYHSNGYRARVRAVDGSRHSNWTVTNTRFSVDEVTLTVGSVNLEIHNGFILGKIQLPRPKMAPANDTYESIFSHFREYEIAIRKVPGNFTFTHKKVKHENFSLLTSGEVGEFCVQVKPSVASRSNKGMWSKEECISLTRQYFTVTN
notes: In-house generated ECD; A biotinylated form held the fusions on the chip in the IL-10RB assay
Take B1: the Kd stood at 4.5 nM.
